# From US12173057B2, “Antibodies and therapeutic uses thereof” (Ibex Biosciences, Inc., priority 2018, dated 2024)
# Numbering of substitutions follows the chain as printed. “Also recorded” adds a separate entry of the source.
# B1: murine antibody: recombinant mouse anti-filamin-A mAb of the disclosure (mouse antibody B186); mouse VL SEQ ID NO:22, VH SEQ ID NO:24 (antibody, listed as Mus sp., V domains shown)
# VH: EVKLVESGGGLVQPGGSLKLSCAASGFTFSSYTMSWVRQTPEKRLEWVAYISNGGGSTYYPDTVKGRFTISRDNAKNTLYLQMSSLKSEDTAMYYCASDGLLRPFAYWGQGTLVTVSA
# VL: DIVMTQSHKFMSTSVGDRVSITCKASQDVSIDVAWYQQKPGQSPKLLIYSASHRYTGVPDRFTGSGSGTDFTFTISGVQAEDLAVYFCQQHYSTPLTFGAGTKLELK
# B2: B411: anti-filamin-A human chimeric antibody, light chain variable region SEQ ID NO:2, heavy chain variable region SEQ ID NO:7 (antibody, V domains shown)
# VH: B1 VH with L101I, L102I
# VL: B1 VL with I31L
# modifications: VH domain of mAbs B407 and B411; human chimeric mAb VL domain of mAbs B408, B409, B410, and B411
# Tests used:
# MDA-MB-231 cells = test: ORIS cell migration (motility) assay; assay type: cell-based, human
# Procedure: Cell motility assays utilized the Platypus Technologies ORIS™ cell migration assay platform, which is generally described at platypustech.com/discoverAssay.html.
# Specifically, the filamin-A antibodies of the present disclosure were evaluated in the ORIS™ cell migration assay, which used tri-coated 96 well plates (Platypus #CMATR1.101). Cells were seeded at approximately 50,000 cells/well. Cells were incubated overnight at 37° C. without CO2 in DMEM, in the case of HEK-293 cells, or L-15 containing 10% FBS, in the case of MDA-MB-231 cells. Stoppers covering cell growth chambers were removed with the ORIS™ stopper tool, growth media was removed, and wells were gently washed with 100 microliters of sterile PBS. Stoppers were left in place in reference wells until the staining step to serve as pre-migration controls. After washing, a 100 microliter volume of fresh culture media containing the specific treatment was added to each well. The cells were then allowed to incubate overnight. At the end of the incubation period, cells were fluorescently stained with Calcein AM for 30 minutes. Fluorescence was then measured using a microplate reader with a Detection Mask in place.
# FIGS. 1 and 2 depict the relative fluorescence units (RFUs) present in the detection zones for each condition (mean+/−S.D., n=2 wells/condition).
# Wells containing the cells existed in three formats: coated with collagen, coated with fibronectin, or a tissue culture (TC) treatment.
# Well treatments were as follows: no antibody control, mouse antibody (mAb FLNA 1 mcg/ml), mouse antibody (mAb FLNA 20 mcg/ml), human chimeric antibody (hAb FLNA 1 mcg/ml), human chimeric antibody (hAb FLNA 20 mcg/ml), apicdin (100 nM), cytochalasin B (30 micromolar); see FIG. 1. An increase in the number of RFUs correlates with an increase in cellular motility.
# filamin-A = test: Immunofluorescence assays with MDA-MB-231 breast cancer cell line; assay type: cell-based, human
# Procedure: Characterization of the filamin-A mAbs was performed using immunofluorescence assays with the MDA-MB-231 breast cancer cell line. […] For comparison, the AHO1402 mAb and another commercially available mAb, TI10 (Millipore MAB1680-C), were assayed at the same time.
# The primary antibodies utilized in the immunofluorescence assays were as follows: • Anti-Filamin-A, clone TI10 (Millipore, p/n MAB1680-C) • Anti-Filamin-A, clone 209 #13 (Life Technologies, p/n AHO1402) • Anti-Filamin-A, mouse mAb • Anti-Filamin-A, human chimeric mAb • Anti-beta Actin, rabbit polyclonal (Rockland, p/n 600-401-886S)
# Two primary methods of Immunofluorescence staining were utilized. The first method comprises single staining or double staining with methanol as a fixative and 0.2% Triton as a permeabilization agent, which is described in Alper et al. 2009. The second method utilizes a double staining technique with 2% paraformaldehyde as a fixative and 0.2% triton as a permeabilization agent.
# Primary antibodies were incubated with the fixed and permeabilized cells for 1 hour at room temperature at a concentration of 1.25 mcg/ml. After one or more wash steps, secondary antibodies were incubated with the cells for 1 hour at room temperature. […]
# [1] = test system: HEK293A (human embryonic kidney cell line); test: CellCountzEZ Cell Survival Assay; assay type: cell-based; details: for ratio of inhibition: dose not restated in b354 (10 μg)
# Procedure: (§1) A study was conducted to assess cell survival following incubation with antibody B411. DU145 (human prostate cancer cell line) and HEK293A (human embryonic kidney cell line) cells were seeded on 96-well plates (10^4 cells/well) and incubated for 4 hours at 37° C. 1 μg or 10 μg B411 (endotoxin removed, 1.2 EU/mL) was added to the wells and incubated for 24 or 48 hours. An untreated group for both cell types was also included. Cell survival was detected using CellCountzEZ™ Cell Survival Assay kit and results were determined by reading OD412 with a reference to OD650.
# [2] = test system: DU145 (human prostate cancer cell line); test: CellCountzEZ Cell Survival Assay; assay type: cell-based; details: for ratio of inhibition: dose not restated in b354 (10 μg)
# Procedure: as §1
# [3] = test system: SKBR3 cells (breast adenocarcinoma); test: Endocytosis assay (Zenon pHrodo labelled antibody, flow cytometry); assay type: cell-based, human; details: 12 μg/mL labelled antibody; 24 hours, 37° C.
# Procedure: Experiments were conducted to determine if antibody B411 is endocytosed by cells. 250,000 cells/well were plated and incubated overnight at 37° C., 5% CO2. 12 μg/mL of antibodies were labelled with Zenon pHrodo kit (human green) according to the manufacturer's protocol for 5 minutes at room temperature, in the dark. The plated cells were then incubated with the labeled antibodies for 24 hours, at 37° C., 5% CO2. Cells were then lifted by manual scraping, and washed prior to analysis by flow cytometry.
# [4] = biological target: T1, surface filamin A on SKBR3 (breast adenocarcinoma) cell line (Homo sapiens, UniProt P21333); test: B411 surface staining by flow cytometry; assay type: binding; details: 2 μg primary antibody, 1 hour on ice
# T1 construct: endogenous in cells; host or cells: SKBR3
# T1 sequence (P21333 whole entry): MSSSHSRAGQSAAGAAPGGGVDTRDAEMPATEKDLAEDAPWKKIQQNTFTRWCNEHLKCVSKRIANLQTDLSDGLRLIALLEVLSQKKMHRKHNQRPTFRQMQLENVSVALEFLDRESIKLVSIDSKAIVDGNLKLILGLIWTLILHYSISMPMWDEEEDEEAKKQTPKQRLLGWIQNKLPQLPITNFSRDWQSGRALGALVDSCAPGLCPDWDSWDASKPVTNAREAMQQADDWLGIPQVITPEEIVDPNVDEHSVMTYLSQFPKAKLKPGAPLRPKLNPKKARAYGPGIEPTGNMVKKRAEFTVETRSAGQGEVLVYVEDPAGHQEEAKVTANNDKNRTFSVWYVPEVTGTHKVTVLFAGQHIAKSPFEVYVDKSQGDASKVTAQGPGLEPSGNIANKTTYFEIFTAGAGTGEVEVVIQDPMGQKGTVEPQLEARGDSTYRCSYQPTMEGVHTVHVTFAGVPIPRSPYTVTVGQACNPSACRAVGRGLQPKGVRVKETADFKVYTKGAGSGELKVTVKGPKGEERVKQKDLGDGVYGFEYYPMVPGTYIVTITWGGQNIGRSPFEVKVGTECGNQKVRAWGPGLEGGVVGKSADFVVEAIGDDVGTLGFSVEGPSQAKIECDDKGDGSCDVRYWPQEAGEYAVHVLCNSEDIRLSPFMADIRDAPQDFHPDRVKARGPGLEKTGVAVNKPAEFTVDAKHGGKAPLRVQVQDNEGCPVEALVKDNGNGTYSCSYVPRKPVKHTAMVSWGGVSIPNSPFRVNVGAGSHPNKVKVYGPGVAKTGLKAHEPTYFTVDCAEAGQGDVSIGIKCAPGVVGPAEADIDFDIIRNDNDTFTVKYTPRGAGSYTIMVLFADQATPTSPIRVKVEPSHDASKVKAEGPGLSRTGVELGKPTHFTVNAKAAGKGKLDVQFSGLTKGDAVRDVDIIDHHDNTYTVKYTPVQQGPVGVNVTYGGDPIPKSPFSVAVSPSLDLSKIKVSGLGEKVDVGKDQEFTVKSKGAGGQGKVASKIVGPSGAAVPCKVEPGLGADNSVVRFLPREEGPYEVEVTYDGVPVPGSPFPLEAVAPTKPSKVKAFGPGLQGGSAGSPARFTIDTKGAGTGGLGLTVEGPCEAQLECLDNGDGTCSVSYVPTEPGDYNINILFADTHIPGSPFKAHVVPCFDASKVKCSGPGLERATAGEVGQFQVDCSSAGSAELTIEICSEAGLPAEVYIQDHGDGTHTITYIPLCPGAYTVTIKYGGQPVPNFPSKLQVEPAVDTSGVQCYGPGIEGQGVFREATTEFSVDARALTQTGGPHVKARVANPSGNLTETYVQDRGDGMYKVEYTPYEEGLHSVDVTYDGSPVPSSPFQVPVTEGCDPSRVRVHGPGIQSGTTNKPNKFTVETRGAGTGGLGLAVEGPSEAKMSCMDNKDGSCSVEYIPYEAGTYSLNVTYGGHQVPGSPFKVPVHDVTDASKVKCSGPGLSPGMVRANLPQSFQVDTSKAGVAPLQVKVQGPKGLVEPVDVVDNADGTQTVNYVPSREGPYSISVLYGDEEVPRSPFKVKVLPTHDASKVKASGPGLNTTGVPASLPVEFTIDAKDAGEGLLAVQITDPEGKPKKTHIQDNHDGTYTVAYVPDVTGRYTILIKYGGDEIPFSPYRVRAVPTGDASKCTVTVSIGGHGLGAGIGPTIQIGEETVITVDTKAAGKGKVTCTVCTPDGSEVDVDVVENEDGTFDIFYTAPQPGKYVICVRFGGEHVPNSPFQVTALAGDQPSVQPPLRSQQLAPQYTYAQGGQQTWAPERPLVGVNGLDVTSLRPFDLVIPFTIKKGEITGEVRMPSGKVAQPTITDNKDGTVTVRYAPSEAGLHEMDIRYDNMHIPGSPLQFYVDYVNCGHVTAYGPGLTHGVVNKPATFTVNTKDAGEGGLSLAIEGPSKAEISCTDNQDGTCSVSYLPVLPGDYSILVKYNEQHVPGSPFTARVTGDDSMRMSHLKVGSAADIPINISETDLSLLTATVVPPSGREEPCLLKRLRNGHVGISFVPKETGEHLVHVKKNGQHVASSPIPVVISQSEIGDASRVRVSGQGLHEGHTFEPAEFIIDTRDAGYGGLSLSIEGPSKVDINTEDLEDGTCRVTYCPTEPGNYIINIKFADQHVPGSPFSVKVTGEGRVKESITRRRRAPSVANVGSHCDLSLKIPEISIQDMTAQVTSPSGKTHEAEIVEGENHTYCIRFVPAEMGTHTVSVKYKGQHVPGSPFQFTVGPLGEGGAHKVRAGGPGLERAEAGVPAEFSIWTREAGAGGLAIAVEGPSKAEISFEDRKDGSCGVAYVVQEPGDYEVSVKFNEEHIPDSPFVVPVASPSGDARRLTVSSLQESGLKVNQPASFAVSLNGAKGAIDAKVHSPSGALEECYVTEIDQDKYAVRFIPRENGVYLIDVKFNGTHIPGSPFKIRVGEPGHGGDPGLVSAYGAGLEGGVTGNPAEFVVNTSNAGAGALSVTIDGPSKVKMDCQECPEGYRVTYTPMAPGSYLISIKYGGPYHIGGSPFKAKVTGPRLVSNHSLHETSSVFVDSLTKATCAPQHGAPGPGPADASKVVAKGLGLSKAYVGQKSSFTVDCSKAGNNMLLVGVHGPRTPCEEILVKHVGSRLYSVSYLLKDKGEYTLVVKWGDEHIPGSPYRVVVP
# Procedure: (§2) B411 surface staining on several different cell types was conducted. Cells were plated at a concentration of 0.5-1.0 million cells per well, and incubated overnight. Cells were then lifted from the wells, washed, and resuspended in flow cytometry media with 2 μg of primary antibody for 1 hour on ice. Cells were washed and incubated with the secondary antibody (5 μg/ml) for 30 minutes on ice. Cells were washed again and analyzed by flow cytometry.
# [5] = biological target: T2, surface filamin A on SKOV3 cell line (ovarian cancer) (Homo sapiens, UniProt P21333); test: B411 surface staining by flow cytometry; assay type: binding; details: 2 μg primary antibody, 1 hour on ice
# T2 construct: endogenous in cells; host or cells: SKOV3
# T2 sequence (P21333 whole entry): as above
# Procedure: as §2
# [6] = biological target: T3, surface filamin A on HeLa cells (Homo sapiens, UniProt P21333); test: B411 surface staining by flow cytometry; assay type: binding; details: 2 μg primary antibody, 1 hour on ice
# T3 construct: endogenous in cells; host or cells: HeLa
# T3 sequence (P21333 whole entry): as above
# Procedure: as §2
# [7] = biological target: T4, surface filamin A on SKNAS (human neuroblastoma) cell line (Homo sapiens, UniProt P21333); test: B411 surface staining by flow cytometry; assay type: binding; details: 2 μg primary antibody, 1 hour on ice
# T4 construct: endogenous in cells; host or cells: SKNAS
# T4 sequence (P21333 whole entry): as above
# Procedure: as §2
# [8] = test system: MDA-MB-231 breast cancer cells; test: ORIS cell migration assay with Calcein AM / propidium iodide / Hoechst 33342 staining; assay type: cell-based, human; details: overnight incubation with antibody versus buffer control
# Procedure: Additional cell assays were carried out using the B411 antibody and the breast cancer cell lines MDA-MB-231 and SKBR3. Specifically, the filamin-A antibody B411 was evaluated in the ORIS™ cell migration assay, which used tri-coated 96 well plates (Platypus #CMATR1.101). Cells were seeded at approximately 25,000 or 50,000 cells/well. Cells were incubated overnight at 37° C., CO2, McCoy's in the case of SKBR3 cells, or L-15 containing 10% FBS, without CO2 in the case of MDA-MB-231 cells. Stoppers covering cell growth and migration zones were removed with the ORIS™ stopper tool, growth media was removed, and wells gently washed with 100 microliters of sterile PBS. Stoppers were left in place in reference wells until the staining step to serve as no-migration controls. After washing, a 100 microliter volume of fresh culture media containing the specific treatment was added to each well. The cells were then allowed to incubate overnight. At the end of the incubation period, cells were fluorescently stained as follows: • Carefully remove remaining culture medium from wells and wash with 100 μL of PBS. […] Fluorescence was then measured using a microplate reader with a Detection Mask in place. • Carefully remove Calcein AM and wash with 100 μL of PBS. […] Incubate 5-10 min at room temperature. • Take a fluorescence image (blue, green and red channels) of a representative well(s) using 5× magnification.
molecule,measurement,setting,value
"C=C1[C@@H](C)[C@H]2[C@H](Cc3ccccc3)NC(=O)[C@]23OC(=O)/C=C/[C@H](O)CCC[C@@H](C)C/C=C/[C@H]3[C@@H]1O [cytochalasin B, reference compound]",effect on cell migration,"MDA-MB-231 cells; tissue culture (TC) treatment wells, no coating",little effect across treatments with the exception of cytochalasin B
B1,immunofluorescence staining pattern,"filamin-A; MDA-MB-231 cells, primary antibody 1.25 mcg/ml",punctate staining pattern
same,immunofluorescence staining pattern,"filamin-A; first method: methanol fixative, 0.2% Triton permeabilization",reproduced the punctuate staining pattern
same,effect on cell motility,MDA-MB-231 cells; collagen coated wells,no considerable differences
same,effect on cell migration,"MDA-MB-231 cells; collagen treated wells, 1 μg/mL",did not lead to a reduction in cell migration
same,effect on cell motility / cell migration,"MDA-MB-231 cells; fibronectin coated wells, 1 μg/mL",decreases in cell motility
same,effect on cell motility / cell migration,"MDA-MB-231 cells; fibronectin coated wells, 1 μg/mL, listed as murine mAbs",less of a reduction
same,cell motility (relative fluorescence units in detection zone),"MDA-MB-231 cells; fibronectin coated wells, antibody 1 μg/mL, overnight incubation",191.34 RFU
B2,effect on cell proliferation,"[1]; 1 μg dose, 24 h or 48 h",did not have an effect
same,inhibition of cell proliferation,[1]; 10 μg,Inhibition of HEK293 cell proliferation was also observed
same,ratio of inhibition,[1]; 24 h,9.3%
same,ratio of inhibition,[1]; 48 h,17.7%
same,inhibition effect on proliferation versus untreated group,"[2]; 1 μg dosing, 24 h",significant inhibition effect on proliferation
same,inhibition effect on proliferation versus untreated group,"[2]; 1 μg dosing, 48 h",no statistically significant effect
same,cell proliferation (OD412 with reference to OD650),"[2]; 1 μg or 10 μg, 24 or 48 hours, overall statement",inhibits DU145 (cancer) cell proliferation
same,inhibition effect on proliferation versus untreated group,"[2]; 10 μg dosing, 24 h and 48 h",significant inhibition effects on proliferation
same,ratio of inhibition,[2]; 24 h,7.8%
same,ratio of inhibition,[2]; 48 h,14.6%
same,endocytosis of antibody,[3],detected
same,"number of cells positive for endocytosis, SKBR3 compared to HEK (non-cancer) cells",[3],More SKBR3 cells were positive for B411 than HEK cells
same,surface staining,[4],some positive staining; also recorded: weaker compared to the other cell lines tested
same,surface staining,[5],Highly Positive staining
same,surface staining,[6],Highly Positive staining
same,surface staining,[7],Highly Positive staining
same,Calcein AM staining (metabolic activity),[8],more variability in Calcein AM staining
same,Hoechst 33342 staining (apoptosis-like phenotype),[8],increase in Hoechst 33342 staining
